Experimental data as given in patent publication CN115611981A (GENOR BIOPHARMA CO LTD, dated 2023).

Molecular target: T1, PD-1 (UniProt Q15116 25-288, limits assumed)
T1 construct: whole, on cells; also called Jurkat/PD-1细胞表面的PD-1; Jurkat/PD1
Experiment: Jurkat/PD-1 + CHO/PD-L1 NFAT-luciferase reporter blockade assay (binding inferred)

T1 sequence (Q15116 25-288 limits assumed): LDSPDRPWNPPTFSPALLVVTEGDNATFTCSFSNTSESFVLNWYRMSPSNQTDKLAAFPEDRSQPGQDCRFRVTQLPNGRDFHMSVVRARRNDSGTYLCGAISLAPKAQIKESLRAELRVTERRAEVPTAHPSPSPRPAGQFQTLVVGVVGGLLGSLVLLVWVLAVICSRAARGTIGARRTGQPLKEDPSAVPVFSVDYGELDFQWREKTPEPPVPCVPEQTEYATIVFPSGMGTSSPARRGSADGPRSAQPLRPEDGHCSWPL

B1: G-Ab1 (antibody, human IgG4 S228P, kappa, V domains shown)
VH: QIQLVQSGSELKKPGASVKVSCKASGYTFTNFGMNWVRQAPGQGLKWMGWISGYTREPTYAADFKGRFVISLDTSVSTAYLQISSLKAEDTAVYYCARDVFDYWGQGTLVTVSS
VL: DIVLTQSPASLAVSPGQRATITCRASESVDNYGYSFMNWFQQKPGQPPKLLIYRASNLESGVPARFSGSGSRTDFTLTINPVEADDTANYYCQQSNADPTFGQGTKLEIKR
notes: The control used was an IgG4 isotype control; also called 抗PD-1抗体; G-Ab1抗体
binding result: binds
